# Measurements taken from the DeepSol protein solubility set.
# Assay: soluble on expression in E. coli; label from the status in PepcDB or PDB records
row,Sequence,soluble on expression in E. coli
1,MNKTYDFKSITENFNLEGELKTSDSHVCGHINDTFIINCEGENGEEIKYVLQRVNSDIFKNPEQLMENIENVTSHIKNKIIEENGDPLRETLNIVKTKEGKNFYKCKEGNYWRIFNFIHDASTYQIVEKPEHLYTAGKALGKFQKQLSDFNVDMLYDTIPDFHNTEKRFEAFMEAVREDKKGRAKDVKEEIDFVINRAEDTKVLVNMIKENKLPLRVTHNDTKFNNIMIDDETGEGIAVIDLDTVMPGLSLYDFGDSIRSGATTALEDEVDLSKVNFDLNLYEHFTKGFLESAGDAFTKEEIEYLPFAAKLMTFECGMRFLMDYLNGDVYFKIHRENHNLDRARNQFKLVSDMEKEMDNMKKIVYSYILEHHHHHH,not soluble
2,MKLSPSVIALSVLLSSHTLANTAGQVETCQQKAQDIQRQIDEAHKHGNQNRINGLEKALDGVKNHCTDAGLAEKRQEAIAEKRKDVAERQQELSESRQKRDDAEKILKRERKLAEAEQELRAAESGASQLEHHHHHH,soluble
3,MSLETINNSAKKQPGLYISGQYKPSVSVFSNFSVKETNVPTKQLIALKKDINSVAVGSNATTGISNPGNFTIPYTAEFQDNVANFNGAVGYSFPDSLRIEIEGFHEKFDVKNPGGYTQVKDAYRYFALARDLKDGFFEPKAEDTGVYHTVMKNDGLSILSTMVNVCYDFSVDELPVLPYICAGMGINAIEFFDALHVKFAYQGKLGISYQLFTKVNLFLDGYYHQVIGNQFKNLNVNHVYTLKESPKVTSAVATLDIAYFGGEVGIRFTFEGHHHHHH,not soluble
4,MNECAFGTKDPVYLNYHDHVWGQPLYDSKALFKLLALESQHAGLSWLTILKKKEAYEEAFYDFEPEKVAQMTAQDIDRLMTFPNIVHHRKKLEAIVNQAQGYLKIEQAYGSFSKFLWSYVNGKPKDLQYEHASDRITVDDTATQLSKDLKQYGFKFLGPVTVFSFLEAAGLYDAHLKDCPSKPKHN,soluble
5,MAGGPPKALPSTGPQSLRDMPHPLAGSSSEEAVGGDSTPSPDLLMARSFGDKDLILPNGGTPAGTASPASSSSLLNRLQLDDDIDGEARDLFVTVDDPKKHVCTMETYITYRITTKSTRVEFDLPEYSVRRRYQDFDWLRNKLEESQPTHLIPPLPEKFVVKGVVDRFSEEFVETRRKALDKFLKRITDHPVLSFNEHFNVFLTAKDLNAYKKQGIALLSRVGESVKHVTGGYKLRSRPLEFAAISDYLDTFALKLGTIDRIAQRIIKEEIEYLVELREYGPVYSTWSALEGELAEPLEGVSACIGNCSTALEELTDDITEEFLPVLREYVLYSDSMKGVLKKRDQVQAEYEAKLEAVALRKEERPKVPADVEKCQDRMECFNADLKADMERWQSNKRHDFRQLLVGLADKNIQYYEKCLMAWESIIPLLQEKQETK,soluble
6,MNADGWLADTRSSYDTVAVSYADQLRGALAGTPYLRAALELFAGMIHTAGGGPVADVGCGPGHVTAHLHGLGVDAFGIDLSPAMIDVARRDHPDLRFEVGSMTDLNLADASVTALLAFWSLIHVPDDAIPAVFGHFRRVVRPGGPLLLGFHIGDESRLKTEGYGGHPMKVHVHHRQPVQVTAWLRDAGFTVEAQWLLGLDGHIPGAVLFAHRQSLEHHHHHH,not soluble
7,MEQTLKITSVLSDPTRFHIYEYIAKVHREVSVQEIAEKFHIHPNVARLHLTKLEDVRMVVSDTQKTGKGGRPSRLYRLSDEVIGLYFPFRDYQLLARIAIQTMAKLGPIGSEALRETGKRFGRELIASRLPHNGAASALTMADKIAIMEEAAEAAGFLPQLHYDEEKGVLYLDIFNCPFKEIAAQAPDTVCGMHHSFLEGMVETLFAGAEVTETENMMEGSHRCAYRIVIRP,not soluble
8,MGSSHHHHHHGGTGENLYFQGGSGQQQPRPVVAQYAYIELLPLRYTGPAPPPAPACMDPTPDEQYRRGVAEKRAALKQKEARRQMSSSGSGMLASLKSAVSQAVMTMEKGAADVSTRTESQVRQLEYQYDCDRFNLHFHELAENGEVLLADYRCSAMHSGLRVNGHVQITPHYLCFLAETTSSIAKTTDAVMGVFVAARHPTSANDEPRNRPVGIKQVIALADIVSIQPSVVLESIGGQAPFFMLLPAPTVRPTALQLYTQDSKLYQFMNFESLVSRATVALNDVVKGTALDQAYNYLDHAWRDTVNLRSKDV,not soluble
9,KTVTPEEKKLVAEKHVDELVQKALVALEEMRKLDQEQVDYIVAKASVAALDAHGELALHAFEETGRGVFEDKATKNLFACEHVVNNMRHTKTVGVIEEDDVTGLTLIAEPVGVVCGITPTTNPTSTAIFKSLISLKTRNPIVFAFHPSAQESSAHAARIVRDAAIAAGAPENCVQWITQPSMEATSALMNHEGVATILATGGNAMVKAAYSCGKPALGVGAGNVPAYVEKSANIRQAAHDIVMSKSFDNGMVCASE,not soluble
10,MGSDKIHHHHHHMTAPTAQSMQAQPIHARLMNGEVLSQDDATAFMREVMSGDMSGVRMAAALAALRVRGETPEEIAGFAQAMRESAVTVKVRPRDVLMDVVGTGGDGAHTFNISTTTAFVLAGAGVPIAKHGNRAASSRAGSADVLEALGVNLDASPEVIQEAIDTLGVGFMFARNYHPALRHAAPVRSDLAARTVFNILGPLSNPAGATHLVVGVFRADLTRTLAEALRHLGAKGATVVYGDGLDEFTVCGPNTVSGLRDGEIIDRTMHPEEFGVDLHPKTAIVGGSPAENAEITHALLTGGGTPAQKDIVALNAGAALRTAGRVGTIREGVEQAREVMKGGQGWEMLQKYGALTKR,not soluble
11,MALHLHRAERTDLLADGLGALLADPQPDPFAQELVLVAARGVERWLSQRLSLVLGCGPGRADGVCAGIAFRNPQSLIAEITGTLDDDPWSPEALAWPLLAVIDASLDEPWCRTLASHLGHFATTDAEAELRRGRRYSVARRLAGLFASYARQRPGLLAAWLDGDLGELPGDLAWQPPLWRALVTTVGADPPHVRHDKTIARLRDGPADLPARLSLFGHTRLACTDVQLLDALAVHHDLHLWLPHPSDELWRALAGFQGADGLLPRRQDTSRRAAQHPLLETLGRDVRELQRALPAARATDEFLGATTKPDTLLGWLQADIAGNAPRPAGRSLSDADRSVQVHACHGPARQIDVLREVLLGLLEDDPTLQPRDIVVMCPDIDTYAPLIVAGFGLGEVAGDCHPAHRLRVRLADRALTQTNPLLSVAAELLTIAETRATASQLLNLAQAAPVRAKFGFADDDLDTITTWVRESNIRWGFDPTHRRRYGLDTVVHNTWRFGLDRILTGVAMSEDSQAWLDTALPLDDVGSNRVELAGRLAEFVERLHHVVGGLSGARPLVAWLDALATGIDLLTACNDGWQRAQVQREFADVLARAGSRAAPLLRLPDVRALLDAQLAGRPTRANFRTGTLTVCTMVPMRSVPHRVVCLVGLDDGVFPRLSHPDGDDVLAREPMTGERDIRSEDRQLLLDAIGAATQTLVITYTGADERTGQPRPPAVPLAELLDALDQTTSAPVRERILVTHPLQPFDRKNVTPGALLGAKPFTFDPAALAAAQAAAGKRCPPTAFISGRLPAPPAADVTLADLLDFFKDPVKGFFRALDYTLPWDVDTVEDSIPVQVDALAEWTVGERMLRDMLRGLHPDDAAHSEWRRGTLPPGRLGVRRAKEIRNRARDLAAAALAHRDGHGQAHDVDVDLGDGRRLSGTVTPVFGGRTVSVTYSKLAPKHVLPAWIGLVTLAAQEPGREWSALCIGRSKTRNHIARRLFVPPPDPVAVLRELVLLYDAGRREPLPLPLKTSCAWAQARRDGQDPYPPARECWQTNRFRPGDDDAPAHVRAWGPRAPFEVLLGKPRAGEEVAGEETRLGALAARLWLPLLAAEGSV,soluble
12,MSKIASEVVATTLNDWYIAIKKQKVDESIKYYSEIKKLFDEMEEDQEVLAYYSLLEERHKMLLHSSRGEPLQKHTYFTEDNQNFITKTNDKLEYNFYLFEAMYEAYNKNYDRAINLYGLAEKKLAEIPDEIEAAEFYSKVSYLYTLVKQSIVAQHYIKNAISIYKRHPDYKCKLATSTMIAAANYADMKRFEEAEQYYLEAIDIAKETKDEFLKAQLFHNLSIVYSDWNKPDKCIESLEKAIGNESWLHSIYYINSLFMMIKELFKIDEKMKAINFYNKAQERLILMENKVYEAKISILYNLYCGELKNNFNNCISNIEFLKQQNELESVDELSYIAAKRFESIGAFEEATSFFNAKIWAE,soluble
13,MGKPVVAIVGRPNVGKSTIFNRIAGERISIVEDTPGVTRDRIYSSAEWLNYDFNLIDTGGIDIGDEPFLAQIRQQAEIAMDEADVIIFMVNGREGVTAADEEVAKILYRTKKPVVLAVNKLDNTEMRANIYDFYSLGFGEPYPISGTHGLGLGDLLDAVAEHFKNIPETKYNEEVIQFCLIGRPNVGKSSLVNAMLGEERVIVSNVAGTTRDAVDTSFTYNQQEFVIVDTAGMRKKGKVYETTEKYSVLRALKAIDRSEVVAVVLDGEEGIIEQDKRIAGYAHEAGKAVVIVVNKWDAVDKDESTMKEFEENIRDHFQFLDYAPILFMSALTKKRIHTLMPAIIKASENHSLRVQTNVLNDVIMDAVAMNPTPTHNGSRLKIYYATQVSVKPPSFVVFVNDPELMHFSYERFLENRIRDAFGFEGTPIKIFARARK,soluble
14,MTESTLAFVFPGQGSQSLGMLAELSELHPQIRETFAEASEGAGVDLWALSQGGPEEMLNRTEYTQPALLAAGVAVWRLWTAQRGQRPALLAGHSLGEYTALVAAGVLSLHDGAHLVRLRGQFMQAAAPAGVGAMAAVLGAEDAVVLEVCAEAAGSQVVVPANFNSPGQIVIGGDAAAVDRALALLAERGVRKAVKLAVSVPSHTPLMRDAANQLGEAMAGLSWHAPQIPVVQNVDARVHDGSAAIRQALVEQLYLPVQWTGCVQALASQGITRIAECGPGKVLSGLIKRIDKSLDARPLATPADYAGALDAWAH,soluble
15,GPGSMWDVVSRVGKAAYRTAALTGLAAGTEQPPYPCALPLKTVSSDSDVDSMREVLNSAFDASKDMLENNGEHQWQLVDYVDPEEGGDLHLFTRPRVGPFNFVKATLSFMGVSPQNVLDTMHSDNADDRKRYSANLSHFEVLAKPMAGCAIELHKYWAPPPVAGREFVFAAEKKYVESENVYYVHGCSIDYTPQMETSKGFVRAACLWAWKLMPVGDNTLATYVSCMNPRGWTPPFIFGWLKSEIGKELVACRRVLYGETVKVERTTLQGMGLSDEVNNLTDEERKRMSEGEPQPEAS,soluble
16,MGSDKIHHHHHHMRAPKISEGKINCKEDDNLKLTVLVDNNTILSNNPHFQDRYFLSEPGLSIFIEADGKKVLFDTGHTGIFLQNSEKMNLDLSDLDYLVLSHGHIDHTGGLKSLIDFYQNQGKTNLKDKPTLIAHPECFLSKIDSPWGEIGCGIPEAEITCHFQLQLSREPLWLTENLVFLGEIERSNDFENLTPLGKVHKNTEGQDDYILDDSALVYKGSKGLIIITGCSHAGICNITKYAQKVCRDERVIDIIGGLHLINPGPIQMEKTKEFLKNVAPQTIRACHCTSLRPKIALAESLNMEEVGTGLQLEYY,not soluble
17,MSLEKKDTNSLKLLLIGNTGIGEYKSRAERKGLWYKLKRFLWTNEFDQTVSALAKWHAEEKADAVLGLGDFLGIPGPLSARDERFTKRWYDIFVKDAKLDIPWLMTLGEEEALVNPSASVRHHYTGEHPNWYMPNDAYTATFSFSTSMTMANGTIQHEAFNATVINVNTWNLFVGNPIANNMQSMMDRLMWLSDQLYTAVNQTTNWLIIMGHLPLVSTGPQGEQGRLQYVDDLYKNGQPRGPEAVLIQMLLSHYQVDLYVSAHDHFMEYVALEDLSKNTTTAFITSGAAVRLLDKDVGRGWIGRLRGALYPILCWSGRRILYAFHPGEGHHHHHH,not soluble
18,MIDLNGQLHDVQATETLGQALAAARPVSAVVQLHGDLGAGKSTLARALLRALGVAGPIRSPTYTLVERYPLSTGDEAWHLDLYRIGHAGELDFLGLDEGSASLWLVEWPERGAGVLPPVDLDVELAVAGEGRSVRLLGRSAIGHAWMDRLSRQPQLQVLFAASREELEHHHHHH,not soluble
